This assay has as its target retinal guanylate cyclase GC1, eGFP fusion (mGFP-GC1 cells) (human) (UniProt Q02846).
Sequence of UniProt Q02846 (Q02846 52-1103): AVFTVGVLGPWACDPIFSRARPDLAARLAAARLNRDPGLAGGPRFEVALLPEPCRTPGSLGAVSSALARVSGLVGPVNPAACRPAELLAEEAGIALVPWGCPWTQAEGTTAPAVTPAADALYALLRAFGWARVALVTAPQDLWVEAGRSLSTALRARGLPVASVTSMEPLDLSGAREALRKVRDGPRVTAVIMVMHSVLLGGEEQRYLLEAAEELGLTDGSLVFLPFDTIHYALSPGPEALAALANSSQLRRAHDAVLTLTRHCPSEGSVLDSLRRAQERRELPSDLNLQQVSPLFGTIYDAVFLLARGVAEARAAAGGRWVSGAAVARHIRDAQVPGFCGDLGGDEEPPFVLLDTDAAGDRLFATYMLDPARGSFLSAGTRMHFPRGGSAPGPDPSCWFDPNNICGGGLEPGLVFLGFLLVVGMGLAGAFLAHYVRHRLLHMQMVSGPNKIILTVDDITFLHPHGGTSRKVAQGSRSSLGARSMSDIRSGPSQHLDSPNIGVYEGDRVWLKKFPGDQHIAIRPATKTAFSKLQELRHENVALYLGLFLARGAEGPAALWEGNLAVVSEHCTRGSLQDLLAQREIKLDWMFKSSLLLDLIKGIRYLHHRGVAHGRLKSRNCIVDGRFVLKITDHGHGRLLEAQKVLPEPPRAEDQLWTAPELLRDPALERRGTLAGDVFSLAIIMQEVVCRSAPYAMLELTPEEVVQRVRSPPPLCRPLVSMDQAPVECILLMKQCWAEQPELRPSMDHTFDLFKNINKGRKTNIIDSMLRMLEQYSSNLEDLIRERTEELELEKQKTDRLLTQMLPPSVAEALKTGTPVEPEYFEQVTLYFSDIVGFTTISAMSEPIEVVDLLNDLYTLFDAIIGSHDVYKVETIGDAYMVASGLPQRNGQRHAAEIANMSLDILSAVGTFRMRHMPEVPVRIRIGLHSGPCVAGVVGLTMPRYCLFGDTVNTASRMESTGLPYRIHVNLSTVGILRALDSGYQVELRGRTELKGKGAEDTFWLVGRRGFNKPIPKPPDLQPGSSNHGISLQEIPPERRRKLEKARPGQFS

In turn, “E111V-GCAP1 (cone-rod dystrophy-associated variant of human GCAP1) (from UniProt P43080 1-201) (natural protein)” registered an EC50: GCAP1 concentration (0–20 µM) at which cGMP synthesis by GC1 in HEK293 cell membranes is half-maximal, at low Ca2+ (< 19 nM) of 1550 nM.
“Human myristoylated WT-GCAP1 (guanylate cyclase-activating protein 1) (from UniProt P43080 1-201) (natural protein)”: the EC50: GCAP1 concentration (0–20 µM) at which cGMP synthesis by GC1 in HEK293 cell membranes is half-maximal, at low Ca2+ (< 19 nM) amounted to 1880 nM.

These data come from publication PMC10673981.
